Source: patent US20240052042A1 (Novartis, published 2024)

T1: human NPR1 on CHO-K1 cells (human, UniProt P16066 33-1061)
T1 sequence: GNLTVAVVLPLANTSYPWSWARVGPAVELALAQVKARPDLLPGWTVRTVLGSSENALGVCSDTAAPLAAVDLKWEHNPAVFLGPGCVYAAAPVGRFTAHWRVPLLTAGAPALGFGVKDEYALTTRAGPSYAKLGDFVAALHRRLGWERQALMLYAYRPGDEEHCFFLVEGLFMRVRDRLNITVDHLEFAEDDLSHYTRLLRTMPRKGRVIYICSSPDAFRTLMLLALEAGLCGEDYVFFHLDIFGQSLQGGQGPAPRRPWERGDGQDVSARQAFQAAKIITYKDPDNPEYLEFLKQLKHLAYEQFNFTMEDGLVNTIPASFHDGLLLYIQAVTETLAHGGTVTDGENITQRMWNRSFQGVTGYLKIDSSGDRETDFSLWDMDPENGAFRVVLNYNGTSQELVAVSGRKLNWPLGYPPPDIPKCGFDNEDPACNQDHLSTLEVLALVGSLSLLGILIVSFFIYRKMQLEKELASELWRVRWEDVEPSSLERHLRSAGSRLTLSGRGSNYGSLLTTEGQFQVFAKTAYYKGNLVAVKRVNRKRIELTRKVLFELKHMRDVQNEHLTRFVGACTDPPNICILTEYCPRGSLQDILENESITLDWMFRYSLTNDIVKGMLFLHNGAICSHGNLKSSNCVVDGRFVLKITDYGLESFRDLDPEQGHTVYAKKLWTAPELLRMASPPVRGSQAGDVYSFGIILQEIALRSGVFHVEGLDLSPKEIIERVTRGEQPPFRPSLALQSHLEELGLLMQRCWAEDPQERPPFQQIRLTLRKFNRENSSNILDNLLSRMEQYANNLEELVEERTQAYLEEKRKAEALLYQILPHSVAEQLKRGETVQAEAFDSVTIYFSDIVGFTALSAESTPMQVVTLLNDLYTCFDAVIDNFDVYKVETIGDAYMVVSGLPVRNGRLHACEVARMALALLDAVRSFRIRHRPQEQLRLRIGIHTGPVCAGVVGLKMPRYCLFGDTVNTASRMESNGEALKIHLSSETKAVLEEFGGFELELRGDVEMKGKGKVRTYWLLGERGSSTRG

T2: human NPR3 in the presence of ANP (human, UniProt P17342 27-481; P01160 124-151, limits assumed)
T2 construct: also called hNPR3 + 100 nM ANP
T2 sequence (looked up): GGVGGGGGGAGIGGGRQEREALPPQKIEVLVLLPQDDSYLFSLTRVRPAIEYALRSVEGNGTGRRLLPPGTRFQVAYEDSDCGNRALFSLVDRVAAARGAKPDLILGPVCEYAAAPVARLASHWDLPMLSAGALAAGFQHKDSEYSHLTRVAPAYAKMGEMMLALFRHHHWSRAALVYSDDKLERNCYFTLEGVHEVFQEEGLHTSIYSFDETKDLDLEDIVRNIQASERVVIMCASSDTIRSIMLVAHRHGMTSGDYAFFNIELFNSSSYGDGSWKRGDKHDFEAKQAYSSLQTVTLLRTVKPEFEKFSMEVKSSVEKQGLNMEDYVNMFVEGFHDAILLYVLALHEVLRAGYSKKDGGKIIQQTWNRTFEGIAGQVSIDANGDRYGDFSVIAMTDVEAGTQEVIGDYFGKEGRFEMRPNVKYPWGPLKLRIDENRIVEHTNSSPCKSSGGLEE
T2 sequence (peptide, looked up): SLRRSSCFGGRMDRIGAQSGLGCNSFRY

T3: hNPR1-ANP complex (human, UniProt P01160 124-151, limits assumed)
T3 construct: hNPR1 antigen in the presence of ANP; also called hNPR1 + 100 nM ANP
T3 sequence: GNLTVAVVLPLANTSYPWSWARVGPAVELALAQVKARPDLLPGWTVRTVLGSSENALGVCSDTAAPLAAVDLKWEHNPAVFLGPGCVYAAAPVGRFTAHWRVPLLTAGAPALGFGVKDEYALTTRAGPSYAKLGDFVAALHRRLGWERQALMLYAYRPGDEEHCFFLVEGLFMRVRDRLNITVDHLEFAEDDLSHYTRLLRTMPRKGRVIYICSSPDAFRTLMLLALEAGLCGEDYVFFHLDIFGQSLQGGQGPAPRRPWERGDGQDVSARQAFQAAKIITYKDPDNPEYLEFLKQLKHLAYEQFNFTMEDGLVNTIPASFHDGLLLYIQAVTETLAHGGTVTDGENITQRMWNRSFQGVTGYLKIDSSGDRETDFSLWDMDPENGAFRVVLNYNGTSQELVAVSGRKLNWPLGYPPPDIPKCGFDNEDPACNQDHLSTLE
T3 sequence (peptide): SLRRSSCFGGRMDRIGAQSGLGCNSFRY

T4: rNPR1-ANP complex (rat, UniProt P01160 124-151 (human entry), limits assumed)
T4 construct: rNPR1 antigen in the presence of ANP; also called rNPR1 + 100 nM ANP
T4 sequence: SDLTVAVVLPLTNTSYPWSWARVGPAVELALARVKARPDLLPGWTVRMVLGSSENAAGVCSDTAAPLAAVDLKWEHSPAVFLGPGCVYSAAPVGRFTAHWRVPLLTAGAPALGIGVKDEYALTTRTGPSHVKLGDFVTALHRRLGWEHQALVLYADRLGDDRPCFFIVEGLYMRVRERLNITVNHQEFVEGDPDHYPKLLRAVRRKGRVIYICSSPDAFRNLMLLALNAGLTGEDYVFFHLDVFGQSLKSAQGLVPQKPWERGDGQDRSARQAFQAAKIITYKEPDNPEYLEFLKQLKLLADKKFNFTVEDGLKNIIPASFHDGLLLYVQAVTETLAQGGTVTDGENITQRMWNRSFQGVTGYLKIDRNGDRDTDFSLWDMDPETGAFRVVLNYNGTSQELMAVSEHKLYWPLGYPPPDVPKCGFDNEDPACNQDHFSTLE
T4 sequence (peptide): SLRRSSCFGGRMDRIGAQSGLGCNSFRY


Assays:
[1] = biological target: T1, human NPR1 on CHO-K1 cells; assay: cell-based or functional assay
[2] = biological target: T2, human NPR3 in the presence of ANP; assay: ELISA, 1 µM IgG; set-up: unit not given here
hNPR1-ANP complex = biological target: T3, hNPR1-ANP complex; assay: ELISA, 1 µM IgG; set-up: unit not given here
rNPR1-ANP complex = biological target: T4, rNPR1-ANP complex; assay: ELISA, IgG titrated on coated antigen with ANP (250 fold molar excess), fluorescence [Cont.]
[3] = biological target: T2, human NPR3 in the presence of ANP; assay: as above

| cGMP conc [nM] at 1 µM IgG, +0.075 nM ANP [1] | cGMP conc [nM] at 1 µM IgG, without ANP [1] | ELISA binding at 1 µM IgG [2] | ELISA binding at 1 µM IgG (hNPR1-ANP complex) | binding result (rNPR1-ANP complex) | binding result [3] | Binder |
| --- | --- | --- | --- | --- | --- | --- |
| 15 nM | 12 nM | 6 | 102 |  |  | YY06 (IgG format) (antibody, V domains shown, also called YY06_LALA) VH: EVQLLESGGGLVQPGGSLRLSCAASGFTFSSYAISWVRQAPGKGLEWVSAISGSGGSTYYAESVKGRFTISRDNSKNTLYLQMNSLRAEDTAVYYCARPYLGDRRSYGFDHWGQGTLVTVSS VL: QSALTQPASVSGSPGQSITISCTGTSSDVGSYNLVSWYQQHPGKAPKLMIYEGSKRPSGVSNRFSGSKSGNTASLTISGLQAEDEADYYCSSYGFHIVVVVFGGGTKLTVLG |
| 9 nM | 4 nM | 5 | 24 | no binding (tested: 1000 nM) | no binding (tested: 1000 nM) | YY07 (IgG format) (antibody, V domains shown, also called YY07_LALA) VH: EVQLVQSGAEVKKPGESLKISCKGSGYSFTSYWISWVRQMPGKGLEWMGIIYPGTSYTRYSPSFQGQVTISADKSISTAYLQWSSLKASDTAMYYCARGSLPGLLGFDHWGQGTLVTVSS VL: QSVLTQPPSVSGAPGQRVTISCTGSSSNIGAGYDVHWYQQLPGTAPKLLIYGNSNRPNGVPDRFSGSKSGTSASLAITGLQAEDEADYYCQSYDSPTSSSVFGGGTKLTVLG |
